Biological target: recombinant human macrophage-colony stimulating factor (human) (UniProt P09603)
UniProt P09603, sequence (P09603 36-181): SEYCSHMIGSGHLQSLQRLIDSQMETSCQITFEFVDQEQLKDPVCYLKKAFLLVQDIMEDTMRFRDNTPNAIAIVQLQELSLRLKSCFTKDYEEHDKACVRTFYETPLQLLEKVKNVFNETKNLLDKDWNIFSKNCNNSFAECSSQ

Row | inhibition of the differentiation of bone marrow-derived osteoclast precursors into osteoclasts with M-CSF (30 ng/mL) and RANKL (100 ng/mL), TRAP(+) MNCs; maximum inhibitory dose [nM] | Substance
1 | 1 | mouse syndecan-1 ectodomain from HEK293E cells (from UniProt P18828 23-255) (domain or fragment)
2 | 1 | mouse syndecan-2 ectodomain from HEK293E cells (from UniProt P43407 19-145) (domain or fragment)
3 | 1 | mouse syndecan-3 ectodomain from HEK293E cells (from UniProt Q64519 45-387) (domain or fragment)
4 | 1 | mouse syndecan-4 ectodomain from HEK293E cells (from UniProt O35988 24-145) (domain or fragment)
